Results: patent US20230248820A1

Molecular target: HCMV pentameric complex gH/gL/pUL128/pUL130/pUL131A (Pentamer), wild type, Merlin strain (HCMV Merlin strain) (UniProt Q6SW67)
Assay: method not stated

**Q.** For “8I21 with HCDR3 Trp105 mutated to alanine (antibody)”, which fold decrease in binding affinity against 8I21 without the mutation is on record?
**A.** > 150 fold
